According to US20250382622A1 (UNIVERSIT T BERN, published 2025):

Target: T1, human Claudin-3 (human, UniProt O15551 1-220)
T1 sequence: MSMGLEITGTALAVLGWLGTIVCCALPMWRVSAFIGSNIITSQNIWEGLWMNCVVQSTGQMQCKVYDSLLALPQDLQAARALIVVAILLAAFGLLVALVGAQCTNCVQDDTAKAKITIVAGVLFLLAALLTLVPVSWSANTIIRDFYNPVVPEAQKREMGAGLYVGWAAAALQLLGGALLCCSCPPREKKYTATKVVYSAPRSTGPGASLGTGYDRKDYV
Assay: cell-based or functional assay

B1: GalNAc functionalized UB-VS003 (antibody, mouse IgG2a, kappa, V domains shown)
VH: EVQLQQSGPELVKPGGSMKISCKASGYSFTGYTMNWVKQSHGKNLEWIGLINPYNDGTNYNQKFKGKATLTVDKSSSTAYMELLSLTSEDSAVYYCSKKGGGYGGTWFAYWGQGTLVTVSA
VL: DIVMSQSPSSLAVSVGEKVTMSCKSSPSLLYSNNQKNYLAWYQQKPGQSPKLLIYWASTRESGVPDRFTGSGSGTDFTLTISSVKAEDLAVYYCQQYYSFPYTFGGGTKLEIKR
modifications: reacted with 25 equivalents of DBCO-PEG4-NHS, then with 100 equivalents of Trebler GalNAc-Azide; modified residues and chain not stated
claudin-3/beta-actin ratio by western blot, human hepatocytes, 24 h, 1 nM antibody: ~45 % of control | claudin-3/beta-actin ratio by western blot, human hepatocytes, 24 h, 30 nM antibody: ~30 % of control | claudin-3/beta-actin ratio by western blot, human hepatocytes, 24 h, 100 nM antibody: ~10 % of control
